{"source": "patent US20070160981A1", "about": "(priority 2005, published 2007)", "key": {"SARS-CoV PLP2": {"molecular_target": "SARS-CoV PLP2 (Severe acute respiratory syndrome coronavirus, UniProt P0C6U8)"}, "[1]": {"test_system": "T1, 10-mer oligopeptide RLKGGAPIKG (five P residues, five P′ residues)", "T1 sequence": "RLKGGAPIKG"}, "[2]": {"test_system": "BCoV 12-mer peptide substrate (P6-P1′ FSLKGGA)"}, "[3]": {"test_system": "T2, 12-mer oligopeptide ISLKGGKIVSTC containing the Gly2740-Lys2741 cleavage site", "T2 sequence": "ISLKGGKIVSTC"}, "[4]": {"test_system": "T3, 11-mer Gly818-Ala819 site-containing oligopeptide VFRLKGGAPIK", "T3 sequence": "VFRLKGGAPIK"}, "[5]": {"test_system": "T4, 14-mer Gly818-Ala819 site-containing oligopeptide VFRLKGGAPIKGVT", "T4 sequence": "VFRLKGGAPIKGVT"}, "[6]": {"test_system": "T5, 12-mer oligopeptide RELNGGAVTRYV containing the Gly180-Ala181 cleavage site", "T5 sequence": "RELNGGAVTRYV"}, "[7]": {"test_system": "T6, 16-mer Gly818-Ala819 site-containing oligopeptide NVFRLKGGAPIKGVTF", "T6 sequence": "NVFRLKGGAPIKGVTF"}, "[8]": {"test_system": "T7, 9-mer oligopeptide FRLKGGAPI", "T7 sequence": "FRLKGGAPI"}, "[9]": {"test_system": "Fluorogenic peptide substrate Abz-[…]-EDDNP"}, "[10]": {"test_system": "T8, 8-mer oligopeptide LKGGAPIK", "T8 sequence": "LKGGAPIK"}, "[11]": {"test_system": "MHV 12-mer peptide substrate (P6-P1′ FSLKGGA)"}, "[12]": {"test_system": "T9, 18-mer Gly818-Ala819 site-containing oligopeptide NNVFRLKGGAPIKGVTFG", "T9 sequence": "NNVFRLKGGAPIKGVTFG"}, "[13]": {"test_system": "T10, 10-mer oligopeptide FRLKGGAPIK (six P residues, four P′ residues)", "T10 sequence": "FRLKGGAPIK"}, "[14]": {"test_system": "12-mer oligopeptide […] containing the Gly818-Ala819 cleavage site"}}, "note": "Values joined by “and” are separate entries in the source; they are usually repeats but may differ in a detail not shown here. Equal entries are not always repeated.", "data": [{"substance": "RELNGGAVTRYV [Gly180-Ala181]", "values": [{"measurement": "Cleavage % 12 hours", "setting": "SARS-CoV PLP2", "value": "5 ± 1", "unit": "%"}, {"measurement": "percentage of the cleavage after 12 hours of digestion", "setting": "SARS-CoV PLP2", "value": 5, "unit": "%"}]}, {"substance": "SARS-CoV papain-like protease 2 (SARS-CoV PLP2), residues 1414-1858 of pp1a, N-terminal 6xHis tag", "values": [{"measurement": "Cleavage %, 2 hours", "setting": "[1]", "value": 14.8, "unit": "%"}, {"measurement": "Cleavage %, 12 hours", "setting": "[1]", "value": 56.4, "unit": "%"}, {"measurement": "Cleavage %, 2 hours", "setting": "[2]", "value": 27, "unit": "%"}, {"measurement": "Cleavage %, 12 hours", "setting": "[2]", "value": 85, "unit": "%"}, {"measurement": "Cleavage %, 2 hours", "setting": "[3]", "value": 7, "unit": "%"}, {"measurement": "Cleavage %, 12 hours", "setting": "[3]", "value": 29, "unit": "%"}, {"measurement": "Cleavage %, 2 hours", "setting": "[4]", "value": 52.9, "unit": "%"}, {"measurement": "Cleavage %, 12 hours", "setting": "[4]", "value": 100, "unit": "%"}, {"measurement": "Cleavage %, 2 hours", "setting": "[5]", "value": 67.6, "unit": "%"}, {"measurement": "Cleavage %, 12 hours", "setting": "[5]", "value": 100, "unit": "%"}, {"measurement": "Cleavage %, 12 hours", "setting": "[6]", "value": 5, "unit": "%"}, {"measurement": "Cleavage %, 2 hours", "setting": "[7]", "value": 63, "unit": "%"}, {"measurement": "Cleavage %, 12 hours", "setting": "[7]", "value": 100, "unit": "%"}, {"measurement": "Cleavage %, 2 hours", "setting": "[8]", "value": 36.2, "unit": "%"}, {"measurement": "Cleavage %, 12 hours", "setting": "[8]", "value": 85.1, "unit": "%"}, {"measurement": "Kcat/Km (µM^-1min^-1) at pH 5.25", "setting": "[9]", "value": 0.06, "unit": "µM^-1min^-1"}, {"measurement": "Kcat/Km (µM^-1min^-1) at pH 6.05", "setting": "[9]", "value": 0.17, "unit": "µM^-1min^-1"}, {"measurement": "Kcat/Km (µM^-1min^-1) at pH 6.82", "setting": "[9]", "value": 0.31, "unit": "µM^-1min^-1"}, {"measurement": "Kcat/Km (µM^-1min^-1) at pH 7.42", "setting": "[9]", "value": 0.27, "unit": "µM^-1min^-1"}, {"measurement": "Kcat/Km (µM^-1min^-1) at pH 8.01", "setting": "[9]", "value": 0.3, "unit": "µM^-1min^-1"}, {"measurement": "Kcat/Km (µM^-1min^-1) at pH 8.65", "setting": "[9]", "value": 0.3, "unit": "µM^-1min^-1"}, {"measurement": "Kcat/Km (µM^-1min^-1) at pH 9.20", "setting": "[9]", "value": 0.21, "unit": "µM^-1min^-1"}, {"measurement": "Kcat/Km (µM^-1min^-1) at pH 9.80", "setting": "[9]", "value": 0.08, "unit": "µM^-1min^-1"}, {"measurement": "Km (µM) at pH 5.25", "setting": "[9]", "value": 21.4, "unit": "µM"}, {"measurement": "Km (µM) at pH 6.05", "setting": "[9]", "value": 64, "unit": "µM"}, {"measurement": "Km (µM) at pH 6.82", "setting": "[9]", "value": 65.5, "unit": "µM"}, {"measurement": "Km (µM) at pH 7.42", "setting": "[9]", "value": 77.2, "unit": "µM"}, {"measurement": "Km (µM) at pH 8.01", "setting": "[9]", "value": 72, "unit": "µM"}, {"measurement": "Km (µM) at pH 8.65", "setting": "[9]", "value": 71.5, "unit": "µM"}, {"measurement": "Km (µM) at pH 9.20", "setting": "[9]", "value": 68, "unit": "µM"}, {"measurement": "Km (µM) at pH 9.80", "setting": "[9]", "value": 70.5, "unit": "µM"}, {"measurement": "kcat (min^-1) at pH 5.25", "setting": "[9]", "value": 1.37, "unit": "min^-1"}, {"measurement": "kcat (min^-1) at pH 6.05", "setting": "[9]", "value": 11.9, "unit": "min^-1"}, {"measurement": "kcat (min^-1) at pH 6.82", "setting": "[9]", "value": 20.6, "unit": "min^-1"}, {"measurement": "kcat (min^-1) at pH 7.42", "setting": "[9]", "value": 19.8, "unit": "min^-1"}, {"measurement": "kcat (min^-1) at pH 8.01", "setting": "[9]", "value": 21.9, "unit": "min^-1"}, {"measurement": "kcat (min^-1) at pH 8.65", "setting": "[9]", "value": 22, "unit": "min^-1"}, {"measurement": "kcat (min^-1) at pH 9.20", "setting": "[9]", "value": 14.1, "unit": "min^-1"}, {"measurement": "kcat (min^-1) at pH 9.80", "setting": "[9]", "value": 5.99, "unit": "min^-1"}, {"measurement": "pH-independent kcat value (constant C from the pH-Log kcat plot)", "setting": "[9]", "value": "25.4±3.43", "unit": "min^-1"}, {"measurement": "pH-independent kcat/Km value (constant C from the pH-Log (kcat/Km) plot)", "setting": "[9]", "value": "0.31±0.02", "unit": "min^-1µM^-1"}, {"measurement": "true Km value", "setting": "[9]", "value": "corrected to 82 µM"}, {"measurement": "Cleavage %, 2 hours", "setting": "[10]", "value": 11.4, "unit": "%"}, {"measurement": "Cleavage %, 12 hours", "setting": "[10]", "value": 44.7, "unit": "%"}, {"measurement": "Cleavage %, 2 hours", "setting": "[11]", "value": 21, "unit": "%"}, {"measurement": "Cleavage %, 12 hours", "setting": "[11]", "value": 80, "unit": "%"}, {"measurement": "Cleavage %, 2 hours", "setting": "[12]", "value": 60.5, "unit": "%"}, {"measurement": "Cleavage %, 12 hours", "setting": "[12]", "value": 100, "unit": "%"}, {"measurement": "Cleavage %, 2 hours", "setting": "[13]", "value": 49.9, "unit": "%"}, {"measurement": "Cleavage %, 12 hours", "setting": "[13]", "value": 100, "unit": "%"}, {"measurement": "Cleavage %, 2 h", "setting": "[14]", "value": 70.1, "unit": "%"}, {"measurement": "Cleavage %, 2 hours", "setting": "[14]", "value": "70% and 70.1%"}, {"measurement": "Cleavage %, 12 h", "setting": "[14]", "value": 100, "unit": "%"}, {"measurement": "Cleavage %, 12 hours", "setting": "[14]", "value": 100, "unit": "%"}]}]}
